By stoichiometry N is commonly meant a count of units in the complex or per binding partner.

From publication PMC4923907 come the findings set out here.

This assay concerns the target GG-SpaA E269A mutant, residues 35-302 (Lactobacillus rhamnosus GG (ATCC 53103)). The assay is described as follows: SEC; size-exclusion chromatography of purified E269A protein, Sephacryl S-200 26/60, 20 mM Tris pH 7.5, 150 mM NaCl, 1 mM EDTA; two forms recovered, trimeric (E1) and monomeric (E2). For orientation: Size exclusion chromatography separates by hydrodynamic size, large species first.

Regarding “GG-SpaA E269A mutant, residues 35-302 (domain or fragment)”, the stoichiometry N is 3.
